Results on 14 sequences are retold here after the DeepSol protein solubility set.

A short description of this data set: soluble on expression in E. coli; label from the status in PepcDB or PDB records.
Consider “MGSDKIHHHHHHMATETRVASLPSIDAAALAAIEGCALVDLLLPDTNGVLRGKRVTREALDKVYRDGVCLPMSLIATDITGNTVEETGLGYAIGDADRICRPIAGSLRPVPWAPQPMAQLLLAMHTPNGALFEVAPRAVLQRVVQGFAALGLTPVIAVELEFYLFDAMADAQGRPQTPRDAHTGERNTSTQVYALQDLDDHRSFTDAVTAACRQQGIPADTAVAEYAPGQFEINLQHRADAVAACDEALLLKRTIKAIAQQQHLLASFMAKPFAGQAGSGLHVHVSLLDAAGHNVLHGTADAPAAALRHAIAGLQRHADASLLLFAPHANSYRRFVPNAFVPLDASWGFNNRTVALRIPHSDAHNTRIEHRIAGADANPYLVAAAVLAAMLDGLQHPGDPTAPVQGNAYAQATFTPRTWQGAVDAFLRSDFIATQLGTQFQHVFGQQKQRELLDYQALVPDLDYARYLRTV”, for which the “soluble on expression in E. coli” value was “not soluble”. With “MDFAFEKVARDWFVRWSKGRSEKYAGQVMRNFERWVFPAIGNLDIRQVRTADVVGCLRVMEARGIVDTLRKTKNSLKMVFAFAVGSGMMEINPVAQIGSGVFERLEHHHHHH” the entry was “not soluble”; with “SLTVFQPLVPPDWKMNLRDGELYAQVAFSAAPEQGFRAGGHGVLKGGSAWMPDNQVNGVDFVLPFRFADGAWHLGTRGPVTLRIAEVINLVTAKNITADLQGRYPWTEEEPLLLTDVSVDVLGGNVLMKQLRMPQHDPALLRLNNLSSSELVSAVNPKQFAMSGAFSGALPLWLNNEKWIVKDGWLANSGPMTLRLDKDTADAVVKDNMTAGSAINWLRYMEISRSSTKINLDNLGLLTMQANITGTSRVDGKSGTVNLNYHHEENIFTLWRSLRFGDNLQAWLEQ”, “not soluble”.

As to “NHELDWSDIKGQHHAKNAMVIAACGGHSILLSGAPGSGKTMMAKRFSTLLPELSETQALECAAINSIRGKLPDFREWRLPPFRAPHHTASPVALVGGGNPPKPGEISLAHHGVLFLDELPEFNRQVLETLREPLESGHICISRAAAQIEFPAKFQLIAAMNPCPCGQWGNSQANCLCTPDRI”, the “soluble on expression in E. coli” value is on record as “not soluble”. With “MVTRVLIVGDGDAGTIMANKLRFHTDRRDVDITVVGNSKDHYFKPDGVHISFNMVDYKKSVKPTEFLFNYGVNYIRDTVSRIDVADHSVQTTGGRNLDYDYLIIATGDRFTPEDVPGYAESAKHFYDLPHALELQKEIKGFKGGKVVIGQASIPIMCPPAPYEFTFLLEEYLNFHGLKDKTEIHYIYPLNRVFTIPNVADFVAKRMEERGIITHTLFNVESIDPKNKKIQSLEGESINYDLLVLIPPHRGQKVITDSGLADESGYIDVDKYKLNYKDYDNVFAIGDATNLPVSKAGATAHFEALYLSNRIAAETSGNVYNELYEGDVACTTVTGYEKGLTLYFNYNKPPRANYDSKLDYFLKWQSGDTFFSSMLRGVALEHHHHHH” the entry was “not soluble”. As for “MAHHHHHHMAMKDAVWLGKPVDVTGEDLCSVYTSRIGGTATLFRETADYSVFRCPKCNSMNTVSLLAQIYAPLDVYDRLLYVLTCSTCSTEQSTFCFALRSQNFNPSYKNVSQTNDKGGCEDKRLLFEESADWGDGMDKGWDYDYKSVKSNTATEQRGNRSTVNEAIADDICSTEVPSSLAPPGSQPPIRGMRFPCFTLEVFEEPPKVKPKSAPFNIQLHEAQGKYGEDVVETTVLDEADEPLHEKLLRKYVERIGRVPSQCVRWGPSREPLQLSVISIVAPRCPYCGKKRRYELQLTSPIIYFLTKSNEKKHPLHFGNVLVFTCSGNCNTEAYALEYCFVEGEI”, the “soluble on expression in E. coli” value is “not soluble”. The result for “PGDESEEQSIKAGMMVCHVFVPGFDDLSEQQQIHMAQAIDHPVRKTAHATEYAMLAGLVLGAVTVSIIRWKNVLVSVCIAVLYASTDELHQLFVPGRSGQVKD” reads “not soluble”. On to “REHDFDDLKFEHFLASAAGAFPAFLEVAEKRIIGEGVLRAVKESMRWHRAENVHFGAFLLLVPLISSWDAGGMVDIAEAARNRLRRTDFRDSLSVLEAFRLSNARVVEAGELNLKDRKTEEEIAQKKINLYEWMKMAPEENLIARELVDGFKISIEGAKFLLSFGNSGKAVVELYYHLLSKFPDPLVIAKMGREYAEKITEWAEKARTEEERKELDEKLLKDGANPGTIADLTASSIFLALAEGWR”, for which the “soluble on expression in E. coli” value was “soluble”. The result for “MAPVVCDVCGVRRAVVLQRHTGRRLCRECFREDIVGRVRREVERWGMIGPGETVLLGLSGGKDSYVLLDALSEIVGPSRLVAVSIVEGIPGYNREGDIEKIRRVAAARGVDVIVTSIREYVGASLYEIYSRARGRGAGHAACTYCGISRRRILALYARLYGAHKVATAHNLDDEAQTAIVNFLRGDWVGMLKTHPLYRSGGEDLVPRIKPLRKVYEWETASYVVLHRYPIQEAECPFINMNPTLRARVRTALRVLEERSPGTLLRMMERLDEELRPLAQAMKPSSLGRCERCGEPTSPKRRLCKLCELLEEAGFQEPIYAIAGRGKRLRLQSPTASPG” reads “not soluble”; that for “ERYGALAVPVGPGNLDIQTTFLVDLQSTVVCCTASMGLLLAEEVQRRNLRDKIAVRKVILGAERSSEAILAKIRECLGAESVHDITGLTEVYGPGTGLSCGVPGADGSI”, “not soluble”; that for “MGSDKIHHHHHHGGEDYVQAEQAPMLKIPEGLKTPPYNKEYDVPALGPKANPALVGKNLDIRPPLQVLPMAEGTHVEEGSDNIKIVVESIDNNVDLKQEIFTNLDDFFAKQAIPIRSRDFDKGSIETDWIESREVLESSLWGSDKEYLLRQRYRFDVETRPHGRTANIVIHLVEHEEFYDGKEQKVMLSGEDKQRYTIDMLNSAIAYMSVKREQTIQANRLKQTLGINVDLITPEEGAAYWSAKAAYKQVWDRLRIVLPEMGFEISDMDSAKGLYFIKFTDNSGFWSSLWNNNQLSLKEGSYRLLLEDGDTPDETKIWLRDAEDQPLSNDVVSKVYESLSSLMKEERKLR”, “not soluble”. The result for “MGSDKIHHHHHHMRNIVFTGKGGVGKTSIAASTAVRAAALGYKTLVISTDPAHSLGDSFDIELGPSPVKVAENLWGQEVSVYGDLSLNWEVVREHFAHLMEVQGIEGIYVEEMGVLPGMEELFSLSYIKRYNESSEYDLLVVDCAPTGETLRLLSIPETFGWMLKLMRNMEKYVVKPVIRPLSKRISRLHDFVPDTDVYDQVDHLFSSVEGIIELLSDNSKTTVRLVMNPEKMVVKESMRALTYLNLYNITIDQIVINRVYMDDVDGQYFKGWKEIQKKYIAEIESSFGPIPITRVPLFRTEVLGLEMLKKVGETVYGDRNPLDIFYHEEHTEIVKPGEGHYVMKLRLPFVFDNRMEANIVQVGDLLTIRIGNHQKSVVLPTFLAGMKVTHAGYEEKWLAIEFRKKETAK” reads “not soluble”; that for “MNNNELYVSLDLGTSNTKVIVGEMTGDSLNIIGVGNVPSEGLKKGSIVDIDETVHSIRKAFDQAERMVGFPLRKAIVGVNGNYINIQDTNGVVAVSSENKEIQVEDVRRVMAAAQVVSVPHEQLIVDVIPKQFIVDGRDEITDPKKMLGVRLEVEGTLITGSKTILHNLLRCVERAGIEITDICLQPLAAGSAALSKDEKNLGVALIDIGGGSTTIAVFQNGHLTSTRVIPLGGENITKDISIGLRTSTEEAERVKKQLGHAYYDEASEDEIFEVTVIGTNQKQTFTQQEAANIIEARVEEILEIVSEELRSMGITDLPGGFVLTGGQAAMPGVMSLAQDVLQNNVRVQGPNYIGVRDPQYMTGVGLIQFACRNARIQGRKIGFKMPEEAIQEIAVSSSEEQEQHHHQNEVQQRPKGKQKTQAEHNKQSKMKKLLSMFWE”, “not soluble”; that for “MKYMIGVDIGTTSTKSVLYDENGTFIMKHQIGYDLHTPNVDVSEENPDELFDAVLMTIKYVMRESKVNKDDIKFVSFSAQMHSLIAMDQQHQRLTNNITWADNRAAKYATVINEVHDGNAIYQRTGTPIHPMSPLAKIFWMKHEWQDVFQRTAKFADIKTYIFYHLFDTYIIDYSMASATGMFNLETLDWDVEALELLGISKEMLPELVPTTYVMKGMKERYATLMGLNKDTPFVIGASDGVLSNLGVNSVGKGEVAVTIGTSGAIRTVIDKPRTDYKGRIFCYVLTEDHYVIGGPVNNGGVVLRWLRDELLASEVETAKRLGVDPYDVLTQIAKRVKPGADGLIFHPYLAGERAPLWNANARGSFFGLTLSHKKEHMIRAALEGVLYNLYTVYLALIEVMNETPKMIKATGGFAKSEVWRQMMSDIFDTELVVPESYESSCLGACVLGLKAVGDIEDFSIVSSMVGATNNHTPIEENVTVYQEIVSIFINLSRSLTENYEQIADFQRQHIAENKTQ”, “not soluble”.
